Source: patent US20060177452A1 (BURNHAM INSTITUTE FOR MEDICAL RESEARCH, published 2006)
No end group written: not given here.

Assays:
[1] = biological target: EphB4 ectodomain fused to human Fc, carboxy-terminal hexahistidine tag (human); assay: inhibition of ephrin-B2 AP binding to immobilized EphB4 ectodomain Fc (FIG. 6B)
[2] = biological target: EphB4 ectodomain fused to human Fc, carboxy-terminal hexahistidine tag (human); assay: inhibition of ephrin-B2 AP binding to immobilized EphB4 ectodomain Fc
[3] = biological target: EphB1 ectodomain fused to human Fc, carboxy-terminal hexahistidine tag (human); assay: inhibition of ephrin-B2 AP binding to immobilized EphB1 ectodomain Fc; biotinylated peptide
[4] = biological target: T1, EphB2 ectodomain fused to human Fc, carboxy-terminal hexahistidine tag (human); assay: phage ELISA on immobilized EphB Fc
T1 chain: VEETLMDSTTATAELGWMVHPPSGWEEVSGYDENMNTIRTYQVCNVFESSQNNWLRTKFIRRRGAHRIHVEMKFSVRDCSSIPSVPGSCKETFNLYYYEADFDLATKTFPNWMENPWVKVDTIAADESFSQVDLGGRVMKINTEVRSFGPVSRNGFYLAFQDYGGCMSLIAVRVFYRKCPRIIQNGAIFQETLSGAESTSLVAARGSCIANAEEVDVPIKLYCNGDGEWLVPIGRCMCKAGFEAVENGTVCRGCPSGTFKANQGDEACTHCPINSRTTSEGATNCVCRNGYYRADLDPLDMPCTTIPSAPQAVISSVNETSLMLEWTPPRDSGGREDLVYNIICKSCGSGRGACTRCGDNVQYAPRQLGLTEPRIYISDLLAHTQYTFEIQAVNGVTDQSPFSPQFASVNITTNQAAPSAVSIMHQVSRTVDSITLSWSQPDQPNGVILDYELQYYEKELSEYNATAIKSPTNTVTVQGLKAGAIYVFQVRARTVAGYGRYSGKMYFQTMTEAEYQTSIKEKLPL

[5] = biological target: T2, EphB4 ectodomain fused to human Fc, carboxy-terminal hexahistidine tag (human); assay: phage ELISA on immobilized EphB Fc
T2 chain: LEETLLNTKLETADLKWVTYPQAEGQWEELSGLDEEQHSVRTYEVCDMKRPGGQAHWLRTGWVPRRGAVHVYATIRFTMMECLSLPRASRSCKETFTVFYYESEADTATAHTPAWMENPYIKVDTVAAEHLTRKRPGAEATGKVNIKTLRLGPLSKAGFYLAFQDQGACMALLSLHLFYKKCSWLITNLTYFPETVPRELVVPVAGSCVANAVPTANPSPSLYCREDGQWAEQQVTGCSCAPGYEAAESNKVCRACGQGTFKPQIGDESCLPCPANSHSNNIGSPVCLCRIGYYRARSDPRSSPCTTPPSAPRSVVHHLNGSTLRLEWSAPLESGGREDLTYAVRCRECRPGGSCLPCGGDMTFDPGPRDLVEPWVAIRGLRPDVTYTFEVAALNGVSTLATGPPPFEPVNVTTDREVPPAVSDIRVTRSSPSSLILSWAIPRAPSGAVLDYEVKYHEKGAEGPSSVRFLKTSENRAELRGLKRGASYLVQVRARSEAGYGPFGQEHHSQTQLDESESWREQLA

[6] = biological target: T1, EphB2 ectodomain fused to human Fc, …; assay: inhibition of ephrin-B2 AP binding to immobilized EphB2 ectodomain Fc; biotinylated peptide
[7] = biological target: T2, EphB4 ectodomain fused to human Fc, …; assay: inhibition of ephrin-B2 AP binding to immobilized EphB4 ectodomain Fc; biotinylated peptide
[8] = biological target: T2, EphB4 ectodomain fused to human Fc, …; assay: inhibition of ephrin-B2 AP binding to immobilized EphB4 ectodomain Fc (FIG. 6A)
[9] = biological target: T3, endogenous EphB4 of MCF7 human breast cancer cells (human, UniProt P54760 16-987); assay: biotinylated TNYL and streptavidin quantum dots, fluorescence microscopy of MCF-7 cells
T3 construct: whole, on cells; In pull-downs it stood in cell lysates; also called endogenous EphB4 (MCF-7)
T3 sequence (looked up): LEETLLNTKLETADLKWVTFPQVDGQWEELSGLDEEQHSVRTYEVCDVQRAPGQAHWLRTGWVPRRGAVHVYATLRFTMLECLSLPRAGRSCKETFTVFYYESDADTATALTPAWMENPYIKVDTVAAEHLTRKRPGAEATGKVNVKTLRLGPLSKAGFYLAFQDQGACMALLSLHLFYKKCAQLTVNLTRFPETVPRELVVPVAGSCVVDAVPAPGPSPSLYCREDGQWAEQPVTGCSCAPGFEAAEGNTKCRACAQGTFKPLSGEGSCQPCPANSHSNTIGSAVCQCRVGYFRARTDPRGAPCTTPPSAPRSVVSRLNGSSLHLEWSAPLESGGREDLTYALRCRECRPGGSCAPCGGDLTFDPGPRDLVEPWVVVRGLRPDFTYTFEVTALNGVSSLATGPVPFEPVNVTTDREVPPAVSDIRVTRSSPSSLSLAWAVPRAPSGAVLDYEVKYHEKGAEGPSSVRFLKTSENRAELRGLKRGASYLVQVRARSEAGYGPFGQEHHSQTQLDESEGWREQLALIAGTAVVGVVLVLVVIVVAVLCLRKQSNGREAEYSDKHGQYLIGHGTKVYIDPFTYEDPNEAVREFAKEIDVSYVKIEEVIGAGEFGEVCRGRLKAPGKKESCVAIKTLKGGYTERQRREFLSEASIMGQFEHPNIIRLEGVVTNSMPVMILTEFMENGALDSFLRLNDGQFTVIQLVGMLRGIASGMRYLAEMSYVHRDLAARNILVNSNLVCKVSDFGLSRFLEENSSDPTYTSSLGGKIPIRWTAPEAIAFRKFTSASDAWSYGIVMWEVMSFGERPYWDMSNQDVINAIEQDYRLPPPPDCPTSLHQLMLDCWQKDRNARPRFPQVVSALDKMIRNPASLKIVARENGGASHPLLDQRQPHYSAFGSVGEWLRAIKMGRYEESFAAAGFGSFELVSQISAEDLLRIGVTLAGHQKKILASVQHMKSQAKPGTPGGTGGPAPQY

Question: What does the source list for ephrin-B2 Fc (Fc fusion)?
Answer: IC50 [1]: 9 µM; IC50 [2]: 0.009 µM

B1: AHTF peptide, synthetic, biotinylated (peptide)
peptide: AHTFPYPHPKPHGSGS
modifications: C-terminal biotin: on the Lys side chain of a GSGSK linker, or N-biotinyl-ethylenediamine after GSGS (which one is not stated)
Question: B1 was tested. Which IC50 [3] did it give?
Answer: Its IC50 is 150 µM.

Question: How did the “% Binding” value [4] turn out when LPHGPVAAWDA (coat-protein fusion not described) was run?
Answer: Its value is 15%.

Question: And the “% Binding” value [5]?
Answer: The value was 100%.

B2: SHWPI peptide, synthetic, biotinylated (peptide)
peptide: SHWPISPYSLLSGSGS
modifications: also: C-terminal biotin, via GSGSK Lys side chain or biotinyl-ethylenediamine, not settled
Question: How did the IC50 [6] turn out when B2 was run?
Answer: The IC50 was over 100 µM.

B3: DHWRI peptide, synthetic, biotinylated (peptide)
peptide: DHWRILPFSLSSGSGS
modifications: also: C-terminal biotin, via GSGSK Lys side chain or biotinyl-ethylenediamine, not settled
Question: B3 was tested. Which IC50 [6] did it give?
Answer: Its IC50 is over 100 µM.

B4: WHWT peptide, synthetic, biotinylated (peptide)
peptide: WHWTIEPFAITSGSGS
modifications: C-terminal biotin: on the Lys side chain of a GSGSK linker, or N-biotinyl-ethylenediamine after GSGS (which one is not stated)
Question: With B4 as the molecule, how does the IC50 [6] read?
Answer: Its IC50 is over 100 µM.

Question: How did the IC50 [7] turn out when NPVIGPIQRAWTGSGS (also: C-terminal biotin on linker (form not given here)) [NPVI peptide, synthetic, biotinylated] was run?
Answer: Its IC50 is over 500 µM.

Question: Which results are given for TNYLFSPNGPIARAW [TNYL-RAW peptide, non-biotinylated]?
Answer: IC50 [8]: ~0.015 µM; fold lower IC50 than non-biotinylated TNYL [8]: 10000 fold

Question: With SGHQLLNKMPN (coat-protein fusion not described) as the molecule, how does the “% Binding” value [5] read?
Answer: The value was 100%.

B5: DHNH peptide, synthetic, biotinylated (peptide)
peptide: DHNHNLYNPWRLGSGS
modifications: also: C-terminal biotin, via GSGSK Lys side chain or biotinyl-ethylenediamine, not settled
Question: With B5 as the molecule, how does the IC50 [7] read?
Answer: The IC50 was about 200 µM.

B6: DALN peptide, synthetic, biotinylated (peptide)
peptide: DALNDWLLFRPWGSGS
modifications: also: C-terminal biotin, via GSGSK Lys side chain or biotinyl-ethylenediamine, not settled
Question: With B6 as the molecule, how does the IC50 [7] read?
Answer: Its IC50 is over 100 µM.

Question: How did the IC50 [7] turn out when TNYLFSPNGPIAGSGS (also: C-terminal biotin on linker (form not given here), also called biotinylated TNYL) [TNYL peptide, synthetic, biotinylated] was run?
Answer: Its IC50 is about 50 µM.

Question: Does TNYLFSPNGPIAGSGS (also: C-terminal biotin on linker (form not given here), also called biotinylated TNYL) [TNYL peptide, synthetic, biotinylated] bind [9]?
Answer: Result: binds
